What was measured:
gDHER2(DIV)-IgG = gDHER2(DIV)-IgG (UniProt P04626)

| Substance | in vitro cleavage of HER-Fc proteins (other HER receptors) | in vitro HER2 cleavage (sheddase) assay, stained gel (gDHER2(DIV)-IgG) |
| --- | --- | --- |
| MMP-15 (MT2-MMP), construct not specified at that place | MMP-15 does not clip other HER receptors | – |
| purified catalytic domain of MT2-MMP (MMP-15) | – | All MT-MMPs except MMP-14 efficiently cleave gDHER2(DIV)-IgG substrate |
| purified catalytic domain of MT3-MMP (MMP-16) | – | All MT-MMPs except MMP-14 efficiently cleave gDHER2(DIV)-IgG substrate |
| purified catalytic domain of MT4-MMP (MMP-19) | – | All MT-MMPs except MMP-14 efficiently cleave gDHER2(DIV)-IgG substrate |
